The values below come from paper PMC6297234, “aPKC controls endothelial growth by modulating c-Myc via FoxO1 DNA-binding ability”.

In the data set the target is GST-FoxO1 DBD (Homo sapiens, UniProt Q12778 151-266). Description: EMSA; 1 µM protein, 1 nM DNA, 1 ng/mL poly dI-dC; 20 mM Tris pH 8.0, 50 mM KCl, 5% glycerol, 2 mM DTT, 0.2 mM EDTA, 2 mM MgCl2, 0.1 mg/mL BSA, 1 ng/mL poly dI-dC; RT 30 min; 6% gel in 0.5X TBE at 4 °C. The note with it: protein: recombinant; tags: GST (pDEST15, N-terminal); blunt. For orientation: Mobility shift assays separate free from complexed probe on a gel.
Chain of GST-FoxO1 DBD (Q12778 151-266): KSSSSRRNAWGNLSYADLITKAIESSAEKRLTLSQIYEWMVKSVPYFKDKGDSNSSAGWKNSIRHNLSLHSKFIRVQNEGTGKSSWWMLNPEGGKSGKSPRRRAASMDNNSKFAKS

B1: FoxO DBE duplex (dsDNA)
DNA 1: CAAAATGTAAACAAGA
DNA 2: TCTTGTTTACATTTTG
As to B1, the binding result was “binds”.
